Laboratory results published in patent US9644034B2, “Anti-RSPO2 antibodies and uses thereof” (OncoMed Pharmaceuticals, Inc., priority 2011, dated 2017).

What was measured:
Type in all cases: cell-based, human
β-catenin signaling [1] = test: 6xTCF-luciferase reporter assay in STF-293 cells with lung tumor cell-conditioned medium (LT); conditions: Fc proteins 10 μg/ml, antibodies 40 μg/ml
Description: To prepare cell suspensions, fresh human lung adenocarcinoma xenograft tumors (lung tumor #1 in Table 2) propagated in NOD/SCID mice were minced and digested in medium 199 (Invitrogen, Carlsbad, Calif.) containing 300 U/ml collagenase type 3 (Worthington, Lakewood, N.J.) and 200 U/ml DNase I (Worthington, Lakewood, N.J.) for 1 to 2 hours at 37° C. The lung tumor cells were filtered through a 40 μm nylon strainer (BD Falcon, Franklin Lakes, N.J.), and spun down at 82×g for 5 minutes. Red blood cells were lysed in ACK buffer (0.8% ammonium chloride, 0.1 mM EDTA, 10 mM sodium bicarbonate, […]), washed, and centrifuged at 150×g for 5 minutes in medium consisting of HBSS (Mediatech, Manassas, Va.), 25 mM HEPES buffer (Mediatech, Manassas, Va.) and 2% heat-inactivated fetal bovine serum (HI-FBS; Invitrogen, Carlsbad, Calif.). Dead cells and debris were removed by centrifugation on a cushion of HI-FBS at 82×g for 8 minutes. […]
STF-293 cells are stably transfected with a 6×TCF-luciferase reporter vector. […] The cells were incubated for 16 hours and luciferase activity was measured using Steady-Glo® Luciferase Assay System according to the manufacturer's instructions (Promega, Madison, Wis.). […]

β-catenin signaling [2] = test: Co-culture 6xTCF-luciferase assay in STF-293 cells with lung (LU2, LU25) and ovarian (OV38) tumor cells and supernatants; conditions: tumor cells LU2, LU25, OV38; 10 μg/ml
Description: Similar experiments were undertaken using co-culture assays using lung tumor cell-conditioned medium and ovarian tumor cell-conditioned medium. As described above, freshly processed tumor cells depleted of stroma cells were cultured overnight. Culture medium and cells were transferred to STF-293 cells with or without Wnt3a L-cell-conditioned medium. LGR5-Fc fusion protein, a FZD8-Fc fusion protein, or a control Fc fusion protein was added (10 μg/ml). The cells were incubated for 20 hours and luciferase activity was measured as described above.

β-catenin signaling [3] = test: TOPflash luciferase assay in HEK-293 cells: inhibition of RSPO activity by soluble LGR5; conditions: LGR5-Fc 20 to 0.02 μg/ml; controls 20 μg/ml
Description: Conditioned medium from human lung tumor #1 cells was prepared as described in Example 3 and soluble LGR5-Fc and RSPO2-Fc were produced as described in Example 2.
HEK-293 cells were transfected with a 6×TCF-luciferase reporter vector (TOPflash, Millipore, Billerica, Mass.). After 24-48 hrs, the transfected cells were incubated with medium containing 25% lung tumor cell-conditioned medium plus 25% Wnt3a-L cell-conditioned medium or medium containing RSPO2 (1 Ong/ml) plus 25% Wnt3a-L cell-conditioned medium. Soluble LGR5 was added to the cells in 4-fold serially dilutions at 20 μg/ml to 0.02 μg/ml. Soluble Jag-Fc protein was used as a negative control at 20 μg/ml and FZD8-Fc protein was used as a positive control at 20 μg/ml. The cells were incubated for 16 hours and luciferase activity was measured using Steady-Glo® Luciferase Assay System according to the manufacturer's instructions (Promega, Madison, Wis.).

β-catenin signaling [4] = test: Luciferase assay in STF-293 cells with LU2 cells, lung tumor cell-conditioned medium and Wnt3a-L cell-conditioned medium; conditions: increasing concentrations, 50 to 0.0006 μg/ml
Description: Conditioned medium from human lung tumor LU2 cells was prepared as described in Example 3 and soluble LGR5-Fc was produced as described in Example 2.
STF-293 cells were incubated with LU2 cells plus 25% lung tumor cell-conditioned medium plus 25% Wnt3a-L cell-conditioned medium. Antibody 130M23 and soluble LGR5-Fc were added to the cells in 5-fold serially dilutions from 50 μg/ml to 0.0006 μg/ml. An irrelevant monoclonal antibody, similarly diluted, and a control Fc fusion protein (50 ug/ml) were used as negative controls. The cells were incubated for 20 hours and luciferase activity was measured using Steady-Glo® Luciferase Assay System according to the manufacturer's instructions (Promega, Madison, Wis.).

B1: LGR5-Fc: soluble fusion protein: amino acids 22-564 of human LGR5 ligated to human Fc (protein)
chain: GSSPRSGVLLRGCPTHCHCEPDGRMLLRVDCSDLGLSELPSNLSVFTSYLDLSMNNISQLLPNPLPSLRFLEELRLAGNALTYIPKGAFTGLYSLKVLMLQNNQLRHVPTEALQNLRSLQSLRLDANHISYVPPSCFSGLHSLRHLWLDDNALTEIPVQAFRSLSALQAMTLALNKIHHIPDYAFGNLSSLVVLHLHNNRIHSLGKKCFDGLHSLETLDLNYNNLDEFPTAIRTLSNLKELGFHSNNIRSIPEKAFVGNPSLITIHFYDNPIQFVGRSAFQHLPELRTLTLNGASQITEFPDLTGTANLESLTLTGAQISSLPQTVCNQLPNLQVLDLSYNLLEDLPSFSVCQKLQKIDLRHNEIYEIKVDTFQQLLSLRSLNLAWNKIAIIHPNAFSTLPSLIKLDLSSNLLSSFPITGLHGLTHLKLTGNHALQSLISSENFPELKVIEMPYAYQCCAFGVCENAYKISNQWNKGDNSSMDDLHKKDAGMFQAQDERDLEDFLLDFEEDLKALHSVQCSPSPGPFKPCEHLLDGWLIRIGV
modifications: left off: a dimerising Fc or GST
notes: soluble fusion protein: amino acids 22-564 of human LGR5 ligated to human Fc
B1 was tested, and the “inhibition of the LT activity potentiating Wnt3a-induced β-catenin activity” value (β-catenin signaling [1]; LT plus Wnt3a L-cell-conditioned medium) was “inhibited”, the “inhibition of LT medium-induced β-catenin signaling” value (β-catenin signaling [1]; absence of Wnt3a) was “reducing the response to almost control levels” and the “reduction of tumor-derived β-catenin activity” value (β-catenin signaling [2]) was “strongly reduced”. For the same molecule, the “induction of luciferase activity by RSPO2-Fc plus Wnt3a-conditioned medium” value (β-catenin signaling [3]) was “reduced”, the “induction of luciferase activity by lung tumor cell-conditioned medium and Wnt3a-conditioned medium” value (β-catenin signaling [3]) was “reduced” and the “induction of luciferase activity by lung tumor cell-conditioned medium and Wnt3a-conditioned medium” value (β-catenin signaling [4]) was “reduced”.
